Measurements from paper PMC6989803, “Synechocystis KaiC3 Displays Temperature- and KaiB-Dependent ATPase Activity and Is Important for Growth in Darkness” (Journal of Bacteriology, 2019).

Assays:
[1] = molecular target: KaiC3 wild-type protein fused to an N-terminal Strep-tag (Synechocystis sp. strain PCC 6803); experiment: SEC; Strep-KaiC3 on Sephacryl S300 HR HiPrep 16/60; 20 or 50 mM Tris-HCl (pH 8.0), 150 mM NaCl, 2 mM DTT, 1 mM ATP, 5 mM MgCl2
[2] = molecular target: the molecule itself; experiment: SEC; KaiB1 and KaiB3 on Sephacryl S200 HR HiPrep 16/60 or Superdex 200 Increase 10/30 GL; 20 or 50 mM Tris-HCl (pH 8.0), 150 mM NaCl, 2 mM DTT

stoichiometry N [1] | Molecule | stoichiometry N [2]
6 | KaiC3 wild-type protein fused to an N-terminal Strep-tag (enzyme) | –
– | KaiB1, recombinant, GST tag cleaved off (natural protein, Synechocystis sp. strain PCC 6803, UniProt P74645 1-105, looked up, Eluted only as a tetramer from size exclusion chromatography; also called KaiB1 tetramer) MSPFKKTYVLKLYVAGNTPNSVRALKMLKNILEQEFQGVYALKVIDVLKNPQLAEEDKILATPTLAKILPPPVRKIIGDLSDREKVLIGLDLLYDEIREREAEDQ | 4
– | KaiB3, recombinant, GST tag cleaved off (natural protein, Synechocystis sp. strain PCC 6803, UniProt Q55819 1-102, looked up, Eluted as a monomer and as a tetramer; the two fractions were tested separately in the ATPase assay; also called KaiB3 monomer; KaiB3 tetramer) MDMNRIVLRLYITGNSVRSQQAIANIYRICQEDLGDQYNVEIIDVLEQPQRAEEEKIMVTPTLIKQLPPPLQRIIGDMSNTEKVLLGLDIVPEGLQVRLPED | 4
